From patent US20210347873A1 (SHANGHAI PHARMAEXPLORER, published 2021)

T1: cynomolgus BLyS (full length, arginine to histidine at position 132) on CHO-K1 cells (cynomolgus, UniProt Q9Y275 1-285 (human entry))
T1 construct: also called cyno BLyS; CHO-K1 cynoBLyS
T1 chain: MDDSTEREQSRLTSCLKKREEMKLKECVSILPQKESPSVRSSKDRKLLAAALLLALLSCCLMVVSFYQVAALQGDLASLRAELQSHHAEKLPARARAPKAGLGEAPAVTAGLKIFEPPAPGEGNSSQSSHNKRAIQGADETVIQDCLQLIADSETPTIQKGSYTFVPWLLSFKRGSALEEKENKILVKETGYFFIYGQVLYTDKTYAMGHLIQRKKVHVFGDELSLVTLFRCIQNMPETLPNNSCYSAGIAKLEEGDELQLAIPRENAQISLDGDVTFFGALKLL


Assays:
[1] = molecular target: T2, human BLyS (full length, arginine to histidine at position 132) on CHO-K1 cells (human, UniProt Q9Y275 1-285); assay: flow cytometry, CHO-K1 hBLyS cells, antibody 0 nM
T2 construct: also called hBLyS; CHO-K1 hBLyS
T2 sequence (Q9Y275 whole entry R130H): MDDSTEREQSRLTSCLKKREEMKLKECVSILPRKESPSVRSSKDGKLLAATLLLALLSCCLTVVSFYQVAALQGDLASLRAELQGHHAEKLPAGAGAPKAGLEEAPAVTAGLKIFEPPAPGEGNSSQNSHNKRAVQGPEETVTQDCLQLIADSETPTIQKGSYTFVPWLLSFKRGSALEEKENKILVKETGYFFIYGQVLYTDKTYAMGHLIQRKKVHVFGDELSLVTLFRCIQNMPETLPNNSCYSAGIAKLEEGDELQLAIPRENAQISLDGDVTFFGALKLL
Description: (§1) The medium was aspirated completely, and the cells were rinsed once with PBS buffer (purchased from Invitrogen) and then treated with cell dispersion solution (TrypLE™ Express Enzyme, purchased from Life technology) and collected. The detailed steps are as follows: the cells were rinsed once with PBS buffer, after counting, the cells were diluted to 2×10⁶ cells/ml with PBS buffer, blocked with 2% (w/w) fetal bovine serum and incubated on ice for 30 minutes. 200 μL of which per well was aliquoted into a 96-well FACS plate and centrifuged at 2000 rpm at 4° C., then each 100 μL of the lead antibodies obtained from Embodiment 1 and 2 were aliquoted into each well and incubated on ice for 1 hour. […] After centrifuged and rinsed 3 times with FACS buffer, cells were suspended with 200 μL of FACS buffer and the results were detected and analyzed by FACS (FACS Calibur, purchased from BD). It was shown in Tables 12-13 that the lead antibody could bind to human BLyS protein on the cell surface and the lead antibody could cross-react with cynomolgus BLyS. The data in the table is MFI, the average fluorescence intensity of the cell population.

mouse BLyS protein = mouse BLyS protein (mouse, UniProt Q9WU72 69-309); assay: cell-based or functional assay
Chain of mouse BLyS protein (Q9WU72 69-309): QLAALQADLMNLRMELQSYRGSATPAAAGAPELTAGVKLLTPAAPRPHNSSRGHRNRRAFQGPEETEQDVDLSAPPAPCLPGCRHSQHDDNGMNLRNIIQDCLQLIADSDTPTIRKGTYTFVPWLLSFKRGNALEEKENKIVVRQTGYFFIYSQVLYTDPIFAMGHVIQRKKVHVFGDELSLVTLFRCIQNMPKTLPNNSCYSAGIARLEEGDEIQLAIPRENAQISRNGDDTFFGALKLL

[2] = molecular target: T2, human BLyS (full length, arginine to …); assay: flow cytometry, CHO-K1 hBLyS cells, antibody 0.00427 nM
Description: as §1

[3] = molecular target: T1, cynomolgus BLyS (full length, arginine …); assay: flow cytometry, CHO-K1 cynoBLyS cells, antibody 0.00427 nM
Description: as §1

[4] = molecular target: T2, human BLyS (full length, arginine to …); assay: flow cytometry, CHO-K1 hBLyS cells, antibody 2.67 nM
Description: as §1

[5] = molecular target: T1, cynomolgus BLyS (full length, arginine …); assay: flow cytometry, CHO-K1 cynoBLyS cells, antibody 2.67 nM
Description: as §1

[6] = molecular target: T1, cynomolgus BLyS (full length, arginine …); assay: flow cytometry, CHO-K1 cynoBLyS cells, antibody 0.0213 nM
Description: as §1

[7] = molecular target: T1, cynomolgus BLyS (full length, arginine …); assay: flow cytometry, CHO-K1 cynoBLyS cells, antibody 0.107 nM
Description: as §1

[8] = molecular target: T1, cynomolgus BLyS (full length, arginine …); assay: flow cytometry, CHO-K1 cynoBLyS cells, antibody 0 nM
Description: as §1

[9] = molecular target: T2, human BLyS (full length, arginine to …); assay: flow cytometry, CHO-K1 hBLyS cells, antibody 0.107 nM
Description: as §1

[10] = molecular target: T1, cynomolgus BLyS (full length, arginine …); assay: flow cytometry, CHO-K1 cynoBLyS cells, antibody 13.3 nM
Description: as §1

[11] = molecular target: T2, human BLyS (full length, arginine to …); assay: flow cytometry, CHO-K1 hBLyS cells, antibody 66.7 nM
Description: as §1

[12] = molecular target: T2, human BLyS (full length, arginine to …); assay: flow cytometry, CHO-K1 hBLyS cells, antibody 0.534 nM
Description: as §1

[13] = molecular target: T2, human BLyS (full length, arginine to …); assay: flow cytometry, CHO-K1 hBLyS cells, antibody 0.0213 nM
Description: as §1

[14] = molecular target: T1, cynomolgus BLyS (full length, arginine …); assay: flow cytometry, CHO-K1 cynoBLyS cells, antibody 0.534 nM
Description: as §1

[15] = molecular target: T1, cynomolgus BLyS (full length, arginine …); assay: flow cytometry, CHO-K1 cynoBLyS cells, antibody 66.7 nM
Description: as §1

[16] = molecular target: T2, human BLyS (full length, arginine to …); assay: flow cytometry, CHO-K1 hBLyS cells, antibody 13.3 nM
Description: as §1

MFI [1] [MFI]	mouse B lymphocyte proliferation (OD450 nm), antibody 0 nM (mouse BLyS protein) [OD450 nm]	mouse B lymphocyte proliferation (OD450 nm), antibody 0.000256 nM (mouse BLyS protein) [OD450 nm]	mouse B lymphocyte proliferation (OD450 nm), antibody 0.00128 nM (mouse BLyS protein) [OD450 nm]	mouse B lymphocyte proliferation (OD450 nm), antibody 0.0064 nM (mouse BLyS protein) [OD450 nm]	mouse B lymphocyte proliferation (OD450 nm), antibody 0.032 nM (mouse BLyS protein) [OD450 nm]	mouse B lymphocyte proliferation (OD450 nm), antibody 0.16 nM (mouse BLyS protein) [OD450 nm]	mouse B lymphocyte proliferation (OD450 nm), antibody 0.8 nM (mouse BLyS protein) [OD450 nm]	mouse B lymphocyte proliferation (OD450 nm), antibody 4 nM (mouse BLyS protein) [OD450 nm]	mouse B lymphocyte proliferation (OD450 nm), antibody 20 nM (mouse BLyS protein) [OD450 nm]	mouse B lymphocyte proliferation (OD450 nm), antibody 100 nM (mouse BLyS protein) [OD450 nm]	MFI [2] [MFI]	MFI [3] [MFI]	MFI [4] [MFI]	MFI [5] [MFI]	MFI [6] [MFI]	MFI [7] [MFI]	MFI [8] [MFI]	MFI [9] [MFI]	MFI [10] [MFI]	Binder	also measured
31.8	2260	2090	2170	2180	2380	2120	2480	2200	2240	1920	46.8	50.4	474	933	118	349	19.8	194	978	20D1B6E9E5 (antibody, V domains shown, Mouse hybridoma monoclonal antibody purified on Protein G) VH: EVQLQQSVAELVRPGASVKLSCTASDFNIKNTYIHWVKQRPEQGLEWIGRIDPVNGNTKYAPKFQDKATIIVDTYSNTAYLQLSSLASEDTAVYYCARWPITTIVATDWYFDVWGTGTTVTVSS VL: DVLMTQTQLALPVRLGEQASISCRSSQSIVNSNGNTYLEWYLQKPGQSPKLLIYKVSNRFSGVPDRFSGSGSGTDFTLKISRVEAEDLGVYYCFQGSHVPWTFGGGTKLEIK	MFI [11]: 535 MFI; MFI [12]: 402 MFI; MFI [13]: 83.6 MFI; MFI [14]: 808 MFI; MFI [15]: 1030 MFI; MFI [16]: 498 MFI
31.2	2120	2390	2200	2110	2260	2330	2490	2410	2240	2070	33.2	24.7	279	518	35.3	76.6	20.3	60	738	67A2E1D10 (antibody, V domains shown, Mouse hybridoma monoclonal antibody purified on Protein G) VH: EVQLQQSGAELVKPGASVKLSCTASGFNIKNYYMHWVKQRTEEGLEWIGRIDPEDGETKYAPKFQAKATITADTSSNTAYLQLSSLTSEDTAVYFCARKGYYGNYGAWFAYWGQGTLVTVSA VL: DIQMTQSPASLSVSVGETVTITCRASEDLYSNLAWYQQKQGKSPQLLVYAATFLADGVPSRFSGSGSGTQYSLKINSLQSEDFGNYYCQHFWGTPPTFGGGTKLEIK	MFI [11]: 432 MFI; MFI [12]: 129 MFI; MFI [13]: 37.1 MFI; MFI [14]: 213 MFI; MFI [15]: 842 MFI; MFI [16]: 371 MFI
52.4	2160	2160	2340	2520	2430	2410	2530	2520	2560	2490	39.2	32.6	437	953	66.3	177	20.3	110	1080	35E6F7C3 (antibody, V domains shown, Mouse hybridoma monoclonal antibody purified on Protein G) VH: EVQLQQSGAELVKPGASVKLSCTAAGFNIQDTYIHWVKQRPEQGLEWIGRIDPANANTVYDPKFQGKATITADTSSNTAYLQVSSLTSEDTAVYYCASPVITAGFAYWGQGTLVTVSA VL: QIVLTQSPAIMSASPGEKVTMTCGASSSVNYVHWYQQKSGTSPKRWIYDTSKLASGVPARFSGSGSGTSYSLTISSMEAEDAATYYCQQWTRSPLTFGAGTKVELK	MFI [11]: 609 MFI; MFI [12]: 247 MFI; MFI [13]: 54.9 MFI; MFI [14]: 501 MFI; MFI [15]: 1130 MFI; MFI [16]: 528 MFI
31.2	1990	2210	2380	2240	2390	2410	2510	2340	2470	2480	39.5	37.7	300	594	106	235	20.2	132	636	78C11D2D12 (antibody, V domains shown, Mouse hybridoma monoclonal antibody purified on Protein G) VH: QVQLQQSGAELVRPGTSVKISCKASGYAFTNYWLGWVKQRPGHGLEWIGDIYPGSGNTYYNEKFKGKATLTADKSSSTAYMQLSSLTSEDSAVFFCAAYLYAMDYWGQGTSVTVSS VL: QIVLTQSPAIMSASPGEKVTITCSASSSVSYMHWFQQKPGTSPKLWIYSASNLASGVPARFSGSGSGTSYSLTISRMEAEDAATYYCQQRGSYPFTFGSGTKLEIK	MFI [11]: 356 MFI; MFI [12]: 249 MFI; MFI [13]: 61.3 MFI; MFI [14]: 480 MFI; MFI [15]: 664 MFI; MFI [16]: 336 MFI
